Results published in US12441790B2, “Binding proteins to the human thrombin receptor, PAR4” (MONASH UNIVERSITY, priority 2017, dated 2025).
Each block holds one molecule with its values, some of them ahead of it.

What was measured:
PAR1 = molecular target: T1, PAR1 (Homo sapiens, UniProt P25116); conditions: in combination with single or dual antiplatelet therapy; cited from earlier work
T1 construct: host or cells: patients in clinical trials
T1 sequence (P25116 22-425): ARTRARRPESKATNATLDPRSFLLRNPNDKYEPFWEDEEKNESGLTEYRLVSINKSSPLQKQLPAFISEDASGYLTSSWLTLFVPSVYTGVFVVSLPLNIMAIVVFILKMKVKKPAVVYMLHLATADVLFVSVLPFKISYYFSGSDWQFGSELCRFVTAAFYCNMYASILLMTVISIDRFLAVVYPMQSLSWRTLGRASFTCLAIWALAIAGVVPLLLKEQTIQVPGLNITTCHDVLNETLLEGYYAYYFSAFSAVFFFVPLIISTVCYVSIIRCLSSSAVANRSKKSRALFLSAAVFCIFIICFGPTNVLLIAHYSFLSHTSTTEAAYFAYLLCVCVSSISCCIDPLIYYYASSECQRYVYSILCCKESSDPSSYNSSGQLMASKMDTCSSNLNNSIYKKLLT

[1] = molecular target: T2, human PAR4 containing an N-terminal FLAG tag (Homo sapiens, UniProt Q96RI0); experiment: PAR4 thrombin cleavage assay, FLAG-tagged PAR4 on HEK293 cells, flow cytometry; type: cell-based
T2 construct: expressed in transfected cells; host or cells: HEK293 / HEK293T
T2 sequence (Q96RI0 18-385): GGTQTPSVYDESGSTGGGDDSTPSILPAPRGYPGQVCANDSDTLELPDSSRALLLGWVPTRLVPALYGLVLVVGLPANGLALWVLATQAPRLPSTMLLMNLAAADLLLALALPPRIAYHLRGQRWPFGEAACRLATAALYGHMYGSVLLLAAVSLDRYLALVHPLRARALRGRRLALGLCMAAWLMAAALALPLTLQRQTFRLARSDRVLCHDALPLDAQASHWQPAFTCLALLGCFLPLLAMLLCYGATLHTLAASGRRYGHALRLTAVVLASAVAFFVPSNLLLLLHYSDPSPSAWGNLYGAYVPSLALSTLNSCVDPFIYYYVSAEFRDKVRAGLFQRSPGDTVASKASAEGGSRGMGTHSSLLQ
Method: 1×10^6 HEK293T cells (in Dulbecco's modified eagle's medium+10% foetal calf serum) were seeded onto 12-well plates 24 hours before transfection. When confluent, they were transiently transfected with 1 μg of DNA from one of the PAR4 variants (expression vectors pBJ-FLAG-PAR4-120A-296F or pBJ-FLAG-PAR4-120T-296F; Edelstein et al (2014) Blood 124(23):3450-8) plus 4 μL of Lipofectamine 2000, as per manufacturer's instructions. Forty-eight hours after transfection, cells were harvested and washed twice with PBS, then resuspended to a count of 1×10^6/mL. Cells (50 μL assays/0.5×10^5 cells per condition) were then pre-treated with either 1, 10 or 100 μg/mL of 5RC3 or sub-clone 5A.RC3.F10b.H4b or 100 μg/mL matched Isotype control (mouse IgG1) for 15 minutes at 37° C. Cells were then stimulated with 2 U/mL of thrombin for 10 minutes. The reaction was stopped by the addition of 4 U/mL hirudin. Cells were then washed once and resuspended with PBS containing a 1:200 dilution of FITC anti-FLAG antibody (Sigma, clone M2) and incubated for 1 hour at room temperature in the dark. Cells were then fixed with 1% paraformaldehyde (final concentration) and read on a FACSCalibur flow cytometer to determine % of FL1/FITC-Positive events. Data were normalised against the resting sample (100%, no thrombin treatment).
Monoclonal antibody hybridoma supernatants (MoB5ARC3, MoB5BRB4, MoB5BRC6, MoB5BRH3 and MoB5CRC4) were screened for their ability to […] intact PAR4 present on the surface of HEK293 cells transfected with human PAR4 containing an N-terminal FLAG tag.
[…] Cleavage of PAR4 by thrombin was measured by loss of FLAG tag from the PAR4 expression HEK293T cells using flow cytometry.

native PAR4 peptide = molecular target: T3, native PAR4 peptide (Homo sapiens, UniProt Q96RI0); experiment: ELISA screening of hybridoma supernatants, native vs KLH-linked PAR4 peptide; type: binding; conditions: first screening; clone; hybridoma supernatant
T3 construct: host or cells: synthetic peptide
Method: (§1) 96-well ELISA plates were coated with 50 μl of antigen diluted to a concentration of 4 μg/ml in coating buffer (0.1M Sodium Hydrogen Carbonate (NaHCO3) (Merck, #1.06329.0500)). Plates were incubated overnight at 4° C.
(§2) Wells were then washed with an automated plate washer (300 μl 1×PBS, 3 times). The wells were blocked with 200 μl of blocking buffer (3% BSA/1×PBS (BSA: (Sigma, #1001647742)) for 1 hour at room temperature followed by washing as above.
(§3) 50 μl of undiluted hybridoma cell culture supernatant was added into appropriate wells and incubated at room temperature for 1 hour followed by washing as above. […] Wells were washed as above. A set of substrate tablets (1×silver, 1×gold) into 20 ml of ddH20 by shaking vigorously on the thermomixer for 6 mins at room temperature. 50 μl of substrate ([…]™ p-Nitrophenyl phosphate Tablets (Sigma-Aldrich, N2770-50SET)) was added into each well and incubated for 20-25 mins at room temperature. 50 μl of STOP solution (2M Sodium Hydroxide, Solid (NaOH) (Merck, Cas #1310-73-2)) was added into each well to stop the reaction. Absorbance was read at 405 nm immediately after adding STOP solution with the ELISA reader, using the ‘RdrOle4’ software.

human platelets = experiment: Functional screen of hybridoma supernatants by platelet aggregation assay; type: cell-based; conditions: aggregation as % of control
Method: Platelet aggregation was measured by light transmission aggregometry in a 96-well plate format. Human isolated platelets (2×10^8/ml) were pre-treated for 10 mins at 37° C. with dimethylsulfoxide (DMSO) (1% v/v), the PAR1 antagonist vorapaxar (90 nM), the anti-PAR4 antibody 5RC3 (20-100 μg/ml), or a combination of vorapaxar and 5RC3. Platelets were treated with one of thrombin (0.1 U/ml) and aggregation was analysed at 37° C. in a FLUOstar OPTIMA plate reader (BMG Labtech) using a 595 nm excitation filter, for a period of 50 min (10 read cycles with 5 min double orbital shake period between each read). Optical density was normalised against the blank (maximum) and unstimulated platelets (minimum) and expressed as % maximum.
Thrombin-induced platelet aggregation in the presence of a PAR1 antagonist (i.e. PAR4-dependent aggregation) is shown for 30 monoclonal antibody supernatants binding to human platelets. Antibody supernatant was mixed with human platelets (2×10^8 cells) at a 1:1 ratio.

PAR2 = molecular target: T4, PAR2 (Homo sapiens, UniProt P55085); experiment: ELISA binding ratio to PAR2; conditions: second screening
T4 construct: host or cells: synthetic peptide
T4 sequence (P55085 with tags, fused parts or gaps limits assumed): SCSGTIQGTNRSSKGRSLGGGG
Method: as §1, §2, §3

Molecule: CCOC(=O)N[C@@H]1CC[C@@H]2[C@@H](C1)C[C@H]1C(=O)O[C@H](C)[C@H]1[C@H]2/C=C/c1ccc(-c2cccc(F)c2)cn1 [vorapaxar]
intracranial bleeding (PAR1): significantly increased rates of intracranial bleeding

B1: MoB5AR C3: parent hybridoma clone (supernatant) from which 5A.RC3.F10b.H4b was sub-cloned (antibody, V domains shown)
VH: QVQLVESGGGVVQPGRSLRLSCAASGFTLSNYGMHWVRQAPGKGLEWVSVIWYDGSNKHYADSVKGRFTISRDNSKNTLYLQMNSLRAEDTAVYYCARESIVEVLPPFDYWGQGTLVTVSS
VL: KIVLTQSPGTLSLSPGERVTLSCRASQRVRNNYLAWFQQKPGQAPRLFIYGASSRATGIPDRFSGSGSGTDFIFTISRLEPEDFAVYYCQQYGNSYTFGQGTKLEIK
modifications: VH of 5A.RC3; VL of 5A.RC3
notes: parent hybridoma clone (supernatant) from which 5A.RC3.F10b.H4b was sub-cloned
Functional screen on hybridoma supernatants that exhibited binding ([1]; % of uncleaved PAR4 peptide expressed on HEK293 cells): Yes (Hybridoma supernatants that demonstrated greater than 70% of uncleaved PAR4 were considered positive)
blocked thrombin-induced cleavage of PAR4 ([1]; initial screen of hybridoma supernatants, thrombin 2 U/ml for 10 mins): at least 90%
block of thrombin-induced cleavage of PAR4 ([1]; initial screen, thrombin 2 U/ml for 10 mins): almost completely blocked thrombin-induced cleavage of PAR4
Fold binding native vs KLH-linked PAR4 peptide (native PAR4 peptide): 19.9

Further lines, with some results ahead:

Binding to PAR2 ratio (PAR2): 1.0
B2: MoB5G G1: hybridoma supernatant clone, second screening; likely parent of 5G.RG1 (antibody, V domains shown)
VH: QVQLVESGGGVVQPGRSLRLSCVASGFTLSSYGMHWVRQAPGKGLEWVAVIWYDGSSKYYTDSVKGRFDISRDNSKNTLYLQMNILRAEDTAVYYCARETILIGGVPFDYWGQGTLVTVSS
VL: EIVLTQSPGTLSLSPGERATLSCGASQSIRSNYLAWYQQKPGQAPRLLIYGASSRATGTPDRFSGSGSGTDFTLTITRLEPEDFALYYCQQYGRSYTFGQGTKLEIK
Functional screen on hybridoma supernatants (human platelets): Yes (+++) (aggregation <25% of control)

Binding to PAR2 ratio (PAR2): 1.3
B3: MoB5F E6: hybridoma supernatant clone, second screening; likely parent of 5F.RE6 (antibody, V domains shown)
VH: QVQLAESGGGVVQPGRSLRVSCAASGFTFSSYGMHWVRQAPGKGLEWVAVIWYDGTKKYYADSLKGRFTISRDNSKYTLYLQMNSLRADDTALYFCARKGARGITGLDYWGQGTLVTVSS
VL: DIQMTQSPSSLSASAGDRITITCRASQSISNYLNWYQQKPGKAPKLLIYAASSLQSGVPSRFSGSGSGTDFTLTISSLQPEDFASYYCRQNYNTPLTFGGGTKVEIK
Functional screen on hybridoma supernatants (human platelets): Yes (+) (aggregation between 50-80% of control)
